The record followed here is publication PMC9944232.

One data set addresses AIFΔ101 WT;Histone H2AX (Homo sapiens;Homo sapiens, UniProt O95831;P16104 102-613;1-143, |). As to the kind of experiment: ITC; dsDNA titrated into AIF:H2AX 1:1; positive cooperativity; ITC: 50 mM potassium phosphate pH 7.4, 15 °C (25 °C with CypA); EMSA: same buffer, 25 °C, 30 min, 2% agarose; AFM on mica at room temperature. The conditions noted are these: protein: recombinant;recombinant; tags: N-terminal His6;N-terminal His6 (PreScission site); copies: 1;1; blunt. (In general: ITC needs no label: the signal is the heat of the interaction.)

The target in data set [1] is AIFΔ101 WT;CypA;Histone H2AX (Homo sapiens;Homo sapiens;Homo sapiens, UniProt O95831;P62937;P16104 102-613;1-165;1-143, ||). As to the kind of experiment: ITC; dsDNA titrated into AIF:CypA with varied H2AX; intrinsic Kd from cooperativity fit, alpha 9.7; ITC: 50 mM potassium phosphate pH 7.4, 15 °C (25 °C with CypA); EMSA: same buffer, 25 °C, 30 min, 2% agarose; AFM on mica at room temperature. Conditions: protein: recombinant;recombinant;recombinant; tags: N-terminal His6;N-terminal His6;N-terminal His6 (PreScission site); copies: 1;1;1; blunt.
Chain of AIFΔ101 WT;CypA;Histone H2AX (O95831 102-613, stated change not applied, chain 1 of 3, other chains not shown): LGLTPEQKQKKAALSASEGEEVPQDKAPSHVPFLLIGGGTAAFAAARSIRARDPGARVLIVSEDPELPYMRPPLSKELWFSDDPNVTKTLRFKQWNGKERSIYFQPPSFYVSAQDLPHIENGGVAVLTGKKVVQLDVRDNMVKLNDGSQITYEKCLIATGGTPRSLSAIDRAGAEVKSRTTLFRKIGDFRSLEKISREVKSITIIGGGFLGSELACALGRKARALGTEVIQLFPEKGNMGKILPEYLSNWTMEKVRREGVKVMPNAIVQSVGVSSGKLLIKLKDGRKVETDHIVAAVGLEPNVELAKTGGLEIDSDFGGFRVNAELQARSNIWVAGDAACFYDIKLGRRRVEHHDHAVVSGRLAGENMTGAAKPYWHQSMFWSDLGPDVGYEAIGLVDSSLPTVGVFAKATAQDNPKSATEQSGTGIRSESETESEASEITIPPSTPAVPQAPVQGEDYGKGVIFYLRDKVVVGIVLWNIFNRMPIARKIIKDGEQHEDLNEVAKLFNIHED
Chain of AIFΔ101 WT;CypA;Histone H2AX (P62937 whole entry, stated change not applied, chain 2 of 3, other chains not shown): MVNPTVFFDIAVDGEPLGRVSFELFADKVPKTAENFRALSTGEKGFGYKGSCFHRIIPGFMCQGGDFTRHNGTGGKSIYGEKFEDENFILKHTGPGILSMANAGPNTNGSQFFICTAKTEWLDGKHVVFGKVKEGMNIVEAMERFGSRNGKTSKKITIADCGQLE

The next data set has as its target AIFΔ101 WT (Homo sapiens, UniProt O95831 102-613). As to the kind of experiment: ITC; binary, no added metal; 15 °C; ITC: 50 mM potassium phosphate pH 7.4, 15 °C (25 °C with CypA); EMSA: same buffer, 25 °C, 30 min, 2% agarose; AFM on mica at room temperature. Conditions: protein: recombinant; tags: N-terminal His6; blunt.
Another data set addresses AIFΔ101 K510A/K518A (Homo sapiens, UniProt O95831 102-613, K510A;K518A). The data set can be described thus: ITC; binary; ITC: 50 mM potassium phosphate pH 7.4, 15 °C (25 °C with CypA); EMSA: same buffer, 25 °C, 30 min, 2% agarose; AFM on mica at room temperature. Conditions: protein: recombinant; tags: N-terminal His6; blunt.
The target of a further data set is AIFΔ101 D489A/K518A (Homo sapiens, UniProt O95831 102-613, D489A;K518A). The data set is described as above. Conditions: protein: recombinant; tags: N-terminal His6; blunt.
Chain of AIFΔ101 D489A/K518A (O95831 102-613 D489A/K518A): as the sequence (O95831 102-613, stated change not applied, chain 1 of 3, other chains not shown) above, with D388A, K417A counted along it
In the next data set the target is Histone H2AX (Homo sapiens, UniProt P16104 1-143). As to the kind of experiment: ITC; binary; stronger than CypA; value in Table S4 not in material; ITC: 50 mM potassium phosphate pH 7.4, 15 °C (25 °C with CypA); EMSA: same buffer, 25 °C, 30 min, 2% agarose; AFM on mica at room temperature. Conditions: protein: recombinant; tags: N-terminal His6 (PreScission site); blunt.

The target of the next data set is AIFΔ101 WT;CypA (Homo sapiens;Homo sapiens, UniProt O95831;P62937 102-613;1-165, |). The data set can be described thus: ITC; dsDNA titrated into AIF:CypA 1:1; negative cooperativity; ITC: 50 mM potassium phosphate pH 7.4, 15 °C (25 °C with CypA); EMSA: same buffer, 25 °C, 30 min, 2% agarose; AFM on mica at room temperature. Conditions: protein: recombinant;recombinant; tags: N-terminal His6;N-terminal His6; copies: 1;1; blunt.
Chain of AIFΔ101 WT;CypA (O95831 102-613, stated change not applied, chain 1 of 2): as the sequence (O95831 102-613, stated change not applied, chain 1 of 3, other chains not shown) above
Chain of AIFΔ101 WT;CypA (P62937 whole entry, stated change not applied, chain 2 of 2): as the sequence (P62937 whole entry, stated change not applied, chain 2 of 3, other chains not shown) above

Chain of AIFΔ101 K510A/K518A (O95831 102-613 K510A/K518A): as the sequence (O95831 102-613, stated change not applied, chain 1 of 3, other chains not shown) above, with K409A, K417A counted along it
Chain of AIFΔ101 WT;Histone H2AX (O95831 102-613, stated change not applied, chain 1 of 2, other chains not shown): as the sequence (O95831 102-613, stated change not applied, chain 1 of 3, other chains not shown) above
Chain of AIFΔ101 WT (O95831 102-613, stated change not applied): as the sequence (O95831 102-613, stated change not applied, chain 1 of 3, other chains not shown) above

B1: 15-bp dsDNA (dsDNA)
DNA 1: GGTTAGTTATGCGCG
DNA 2: CGCGCATAACTAACC
For the molecule B1, the binding result in the data set with AIFΔ101 WT;Histone H2AX, with Histone H2AX and with AIFΔ101 WT;CypA was “binds” each time. The Kd in data set [1] came out at 9.1 µM; with AIFΔ101 WT it was 2.9 µM; with AIFΔ101 K510A/K518A it was 0.5 µM; in the data set with AIFΔ101 D489A/K518A, 0.5 µM.

What is called Kd is the free concentration of one partner at which half of the binding sites on the other are occupied at equilibrium, for simple one-to-one binding.
